# In the DeepSol protein solubility set:
# Test: soluble on expression in E. coli; label from the status in PepcDB or PDB records
row,Sequence,soluble on expression in E. coli
1,MGSDKIHHHHHHMASIKDVAKLAGVSIATVSRVINGYNNVSEETRKKVIDAIRKLNYHPVYAVKGAVLKRTIGVLVPNFGGFHYNEILTGIEKEAIKRDFTLMISTTLHRTSVELERLEVFFAKRVDGIIVCSSKKDEEQLERLIKSAIPVVVVDREEPEIRLDNVGIDNYAAGRMCAKYLLEKGHRKVLLLKGRKDIYSFSDRERGFIDYSTRHGIDVKVTPCGYFAEHGYHAVERYLKKHGRDFTAIFAINDLSAFGALKALHDLGVLVPDEVSVMGFDDDPISSYTIPPLTTVRQPREEMGRVAFEILYERLSGKKGVARRVVLPVEIVERESVKQL,not soluble
2,RVAHLLKKIHNSRPLLSMLKRMEMEPITPEIMLNKINASLSREVLTHHIVRKSLTYLEEHIPSLDSRFFTVVHGDVNHNNWLLSDRDELFLVDWEGAMIADPAIDIGMLLYNYVPQQQWSEWLETYGVQESLNLNKRMKWY,not soluble
3,MKTVRCSILGFGAIGQGVAEVLLMKKEYLESIGLEIIVVAVVDSRGATINPEGVDLADCLARKRTTGTVAIEKITGVEVIKSIDHDLVIETTPTNIVTGGAGLQNMFAAFEIGKDVITSNKGPLTLKYRELMEAAKVAGSSFRFEATVGGSMPIINLANEVLAGNRLKSIKGILNGTCNYILTRMLEERASYKDILAESMELGIAETDPTYDVDGIDTACKLVILANAIFGLNATYKDVEVTGITKITPEALEMAYERGHVIKLIGEVSRERIHVAPRLVPINHPLDVRGTLNVASIDTELAGEITVTGKGAGPVETASAILSDLIAIYGNQLEHHHHHH,soluble
4,MKKFKNILFATQGLPGHSDALEQAIQLAYNNRGQLAGLIAFPAFPADLQRYQEPYEQSYLNTLMETVEACRSQHHIHKDEVPFPLMVEHSEQPAVAIIKSALNHHIDLLIKEAEPMTHSQQGFKALDMTLLRKCPCPVWLHR,not soluble
5,MGSDKIHHHHHHMALKKICLENFTVFDKMEIEFCDGVNVLIGENGTGKTHIMKLLYAACQSAHASKKVISFPQKIVQVFKPDHANISRLLSRKAGNGSAKVHVISGNNTLKTSFNLKTKNWDAEVVGAQAWEKQLSNLTSTFIPAKEILSNSKNLVNAINVGNVDFDDTYKDIISVASVDINRGPNNVQKEKYLQILQDITDGKVSYENEEFYLLPGNQAKLEFQLVAEGMRKIALLWQLIKNGTLEQGTVLFWDEPEANINPKHIPALVEVLLNLQGDGVQIFIATHDYVLAKYLEIRMADANKIRFHSLYKKEGRVEVESNHNFKDLVNNSIAEAYNKLLDEVFEQTTKG,not soluble
6,MITPSRYPGIYIAPLSSEPTAAHTFKEQAEKALDHISAGPSGRELLQEISKLASKKDRKVTLKEIEINNQCYTDAVLSRRQLEKYEPEDFNENRRIASRLSRKGTFTKGEGSNAIIGWSPDKASIRLNQNGSPLRLGMDNDDKITTLAHELVHVRHVLSGSSLADDGDRYNPRTGSGKEELRAVGLDKYSYSLTKEPSENSIRAEHGLPLRMKYRPHQ,not soluble
7,MLIEPRDPLIVRDGRPFTNSPGARAKSLPFPLPQTLAGAYRTRRALLEGLPLPERAEEVLRWGLRGPLLAEEGEGGWRLLAPRPLDALKLGEALYPLRPLELPQGAGTNLPEGLSPVGLPSPALKEKPAPLPAFWYWESFLEWLLQDAPAGFAPRGHEGPVPETRTHVALDPAAQTAREGFLFQTSGLEFVRGRRRLALVLWPEGPEPEGVFPLGGERRLAFWQKGGPGVPPLPEEVVAGLLRHRAARLVFLTPAFLGEAYLPKGRAFQGASVVAAVVGRPLAVSGWNLKEGKPKPSRRAVPAGSVYFVRLPEAWGEGEVRDWAEKVWFQNLSEEEQDRRDGFGLAALGLWDGKLRRWEEA,soluble
8,AKVATGTDILSAASNVSLQKARTWDEGVESKFSTTPVNDIFKDKKVVIFGLPGAYTGVCSSKHVPPYKHNIDKFKAKGVDSVICVAINDPYTVNAWAEKIQAKDAIEFYGDFDGSFHKSLELTTDLSAGLLGIRSERWSAYVVDGKVKALNVEESPSDVKVSGAETILGQI,soluble
9,MSLQKRVTDEDIKERLDKIGFRIAVMSGKGGVGKSTVTALLAVHYAKQGKKVGILDADFLGPSIPHLFGLEKGKVAVSDEGLEPVLTQRLGIKVMSIQFLLPKRETPVIWRGPLIAGMIREFLGRVAWGELDYLLIDLPPGTGDAPLTVMQDAKPNGAVIVSTPQELTAAVVEKAITMAEQTKTAVLGIVENMAYFECPNCGERTYLFGEGKASELARKYKIEFITEIPIDSDLLKLSDLGRVEEYEPDWFEFFPYEGGSHHHHHH,soluble
10,MAHHHHHHMSLTDIEEAETVELLSEDSCSTMSASSEDVGATTVDTSLPLTANATEEQLRRRMLHECACIPELRPQPAWLEESGAAGDGPSASTTEMNWDVAHADHLVVAVRWRVAPTSPGTGCPSLHTTPWVPYAVPLAKVIASRTMAATDTASTVTSTTSSSGGGSSATVQPLGSVQLPLGRSMFLLAAQRSSLVPRAWDSGVAAESLVNVAASISRAQCTLHLHYAAAKTPQAPSSLRTRPVCRSFDVFAISPTTALLGIALQPHQRYHIKRKRGTGKSAHASEDQPCDANGVLTLRVGPYCHVDVALDELPSEPRVSGSAGTCPSITINTYNGRHAHTTRSGQTQDSPAVHRTSACRSGVAREPPAAAMQLQHGSTASLITGDSTAVLATLSEMSDHVALSETSGHEHDGPVVAGSQEVAAAPSHTSITGSLKRRRPAAARGRAAEAVVRRVGNAEAAEGGDVDEADAAVSHSVTTTPSEIVLFTTGMRLSDAEEKTLKELGALVNPHLRLARYARVLAAQRPLVRSVKLLTVLPYVQDVVHQSWLDAVLRTRSLDLPLEGFAYKERKLAGSIESENSFDLRETMRKAPTERQRLFAQQHFWVHKSATPQEPPMNDLKTVVAASGGIITRCVLDADVLVLPKHKPTLSCWRGIAQQLGGTGRASTSSASASTTPTLAQRKQAGVLFVVPDDIFKCVLQQRRLSASSVTLPWQLLTEAAAARGTTGAARVGRRPSQPTRKTPRASTTQRSPRRKSCKRSQ,soluble
11,ISEFGSSRMLTTLIYRSQVHPDRPPVDLDALVHRASSKNLPLGITGILLFNGLQFFQVLEGTEEALESLFSEIQSDPRHRDVVELMRDYSAYRRFHGTGMRILDLRLFETDGALEEILRFSTFGVTEPVNDRMFRLLSAFIADGGRYCLPEPLQPSRWMMMPASGTAAPQHLPGQPCQFALQAIVEPAKKRVSSFEALIRSPTGGSPVEMFAAIAAEDRYRFDLESKAYAFALAGQLPLGKHQLAINLLPGSLYHHPDAVGWLMDSLLAAGLRPDQVLIEVTETEVITCFDQFRKVLKALRVAGMKLAIDDFGAGYSGLSLLTRFQPDKIKVDAELVRDIHISGTKQAIVASVVRCCEDLGITVVAEGVETLEEWCWLQSVGIRLFQGFLFSRPCLNGIGEICWPVARQAMDL,soluble
12,MVLILNGPNLNLLGRREPEVYGRTTLEELEALCEAWGAELGLGVVFRQTNYEGQLIEWVQQAHQEGFLAIVLNPGALTHYSYALLDAIRAQPLPVVEVHLTNLHAREEFRRHSVTAPACRGIVSGFGPLSYKLALVYLAETLEVGGEGF,soluble
13,FVSFKHKYKVTSINEIAKDTFEITGTSLKNELKYKAGQFAFIKIPEKKSFFPSHPFTMSNSNKSNEIQFSIKVLGDHTKALKENLKVGDTLSVSGPHGKFNYENGLKHQIWIAGGIGITPFRSFWQAELPSDYTVDLFYTYNNENEGAYINELNSINKNSNLNIHSIDSSKNGFLGLEDLEKHIDKNLEYSVFFCGPKPMREKLRRDFEKVNFKIKDMNYEHFHF,not soluble
14,MGSDKIHHHHHHMSTSAIDPVSFSLYAKDFTRFAQELGASFERYGFAVLSDYDLDQARIDAAVDSAKAFFALPVETKKQYAGVKGGARGYIPFGVETAKGADHYDLKEFWHMGRDLPPGHRFRAHMADNVWPAEIPAFKHDVSWLYNSLDGMGGKVLEAIATYLKLERDFFKPTVQDGNSVLRLLHYPPIPKDATGVRAGAHGDINTITLLLGAEEGGLEVLDRDGQWLPINPPPGCLVINIGDMLERLTNNVLPSTVHRVVNPPPERRGVPRYSTPFFLHFASDYEIKTLQNCVTAENPDRYPESITADEFLQQRLREIKLA,not soluble
15,MRMSSNFRNPCMIRSDVPLSNDQIAHYVPSIFAEEAHDSRSARYLYIPTVQVLDALRAEGFEPFMACQTRVRDQGKREHTKHMLRLRHASQILDQEANEVILLNSHDGSSSYQMIGGKFRFVCANGLVLGDVAADQKVRHSGRGDVVHDVIEGAFEVLKHFEQIDHITADMKHQQLDQDEQEAFALAALAYRYDPAEGPAPVTPSQLLMPRRREDRSSDLWTTFNRVQENTIKGGLTGRNKQGRRTTTRAVNGIDQDVKLNRALWVLAQAMGEHRKAA,not soluble
